Consider one substance from IntAct's records for PubMed 17981117.

The target in this assay is ima4_human KPNA3 (UniProt O00505).
Sequence of ima4_human KPNA3 (O00505 whole entry): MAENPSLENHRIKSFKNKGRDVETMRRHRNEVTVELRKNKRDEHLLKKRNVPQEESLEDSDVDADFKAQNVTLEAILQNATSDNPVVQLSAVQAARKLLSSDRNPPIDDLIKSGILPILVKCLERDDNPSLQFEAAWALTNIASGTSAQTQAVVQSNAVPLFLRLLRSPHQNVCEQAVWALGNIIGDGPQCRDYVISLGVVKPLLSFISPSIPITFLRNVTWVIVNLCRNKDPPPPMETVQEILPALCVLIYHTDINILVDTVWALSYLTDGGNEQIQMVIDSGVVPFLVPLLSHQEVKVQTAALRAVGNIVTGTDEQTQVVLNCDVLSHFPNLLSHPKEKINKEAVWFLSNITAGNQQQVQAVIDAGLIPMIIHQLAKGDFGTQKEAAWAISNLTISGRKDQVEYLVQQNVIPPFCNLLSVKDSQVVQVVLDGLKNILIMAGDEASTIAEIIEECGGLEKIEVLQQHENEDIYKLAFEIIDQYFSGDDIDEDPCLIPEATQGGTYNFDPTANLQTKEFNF

As to “Circumsporozoite protein (Plasmodium yoelii yoelii), P06914 R315T;R317T;R319T”, the “effect of a mutation on the interaction” value is on record as “decreasing interaction”.
